Source: paper PMC6787100
Values joined by “and” are separate entries in the source; they are usually repeats but may differ in a detail not shown here. Equal entries are not always repeated.

What was measured:
[1] = target: lantibiotic subtilomycin (Bacillus subtilis BSn5); assay: tricine-SDS-PAGE; purified subtilomycin on 16% tricine-SDS-PAGE; bands of around 9, 12 and 15 kDa; oligomers of subtilomycin
[2] = target: Hag (ex), recombinant Hag with the flg22 region replaced by flg22 (Ps) (Bacillus subtilis BSn5 | Pseudomonas syringae); assay: MST; protein labelled with Cy5-NHS ester at fixed concentration, serial 2x dilutions of unlabelled subtilomycin (1 mM set as highest; 500 μM highest final in the legend); PBS pH 8.0; MST power 20%, LED power 60%; Monolith NT.115; constants called ambiguous, based on total subtilomycin concentration

For lantibiotic subtilomycin (peptide), the stoichiometry N [1] was 3 and 4 and 5 and the Kd [2] was 80.6 µM.
